Results taken from article PMC11753358 (Oncogene, 2024).

Target: human EphA2-Fc, biotinylated (human, UniProt P29317 24-537, biotin (EZ-Link Sulfo NHS-LC-LC-Biotin, 1:1 molar ratio))
Assay: BLI

Sequence of human EphA2-Fc, biotinylated (P29317 24-537): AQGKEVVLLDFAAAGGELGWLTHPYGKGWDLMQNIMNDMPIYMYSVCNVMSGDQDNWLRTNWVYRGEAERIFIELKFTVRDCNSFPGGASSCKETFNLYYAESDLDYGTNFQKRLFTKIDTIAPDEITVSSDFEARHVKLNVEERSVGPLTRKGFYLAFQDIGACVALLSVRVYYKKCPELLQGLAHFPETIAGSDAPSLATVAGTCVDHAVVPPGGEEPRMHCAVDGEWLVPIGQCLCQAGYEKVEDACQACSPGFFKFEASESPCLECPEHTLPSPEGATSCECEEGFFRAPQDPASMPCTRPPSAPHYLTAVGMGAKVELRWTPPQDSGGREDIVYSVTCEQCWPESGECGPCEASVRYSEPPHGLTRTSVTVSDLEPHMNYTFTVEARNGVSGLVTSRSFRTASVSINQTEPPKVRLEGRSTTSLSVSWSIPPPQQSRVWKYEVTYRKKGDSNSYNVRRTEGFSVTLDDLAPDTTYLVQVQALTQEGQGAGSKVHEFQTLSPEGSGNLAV

binding result: binds
B1: human ephrin-A1-Fc (recombinant soluble ephrin-A1 fused to human IgG1Fc) (Fc fusion, UniProt P20827 19-182, looked up)
chain: DRHTVFWNSSNPKFRNEDYTIHVQLNDYVDIICPHYEDHSVADAAMEQYILYLVEHEEYQLCQPQSKDQVRWQCNRPSAKHGPEKLSEKFQRFTPFTLGKEFKEGHSYYYISKPIHQHEDRCLRLKVTVSGKITHSPQAHDNPQEKRLAADDPEVRVLHSIGHS
